In patent publication US20050182242A1, “Global analysis of protein activities using proteome chips” (priority 2001, published 2005):

B1: GPA2: yeast GST-HisX6 fusion protein on proteome chip (protein, UniProt P10823 2-449, looked up)
Guanine nucleotide-binding …: GLCASSEKNGSTPDTQTASAGSDNVGKAKVPPKQEPQKTVRTVNTANQQEKQQQRQQQPSPHNVKDRKEQNGSINNAISPTATANTSGSQQINIDSALRDRSSNVAAQPSLSDASSGSNDKELKVLLLGAGESGKSTVLQQLKILHQNGFSEQEIKEYIPLIYQNLLEIGRNLIQARTRFNVNLEPECELTQQDLSRTMSYEMPNNYTGQFPEDIAGVISTLWALPSTQDLVNGPNASKFYLMDSTPYFMENFTRITSPNYRPTQQDILRSRQMTSGIFDTVIDMGSDIKMHIYDVGGQRSERKKWIHCFDNVTLVIFCVSLSEYDQTLMEDKNQNRFQESLVLFDNIVNSRWFARTSVVLFLNKIDLFAEKLSKVPMENYFPDYTGGSDINKAAKYILWRFVQLNRANLSIYPHVTQATDTSNIRLVFAAIKETILENTLKDSGVLQ
modifications: GST-His6 tag
notes: yeast GST-HisX6 fusion protein on proteome chip
B2: RPH1: yeast GST-HisX6 fusion protein on proteome chip (protein, UniProt P39956 1-796, looked up)
DNA damage-responsive …: MTKLIAPSEIVGGVPVFKPTYEQFEDFYAYCKAINKYGMKSGVVKVIPPKEWKDKLDLPYSAETLQKIKIKSPIQQHISGNKGLFMVQNVEKNKTYNIIQWKDLSKDYVPPEDPKARRNSRKGSVSKSTKLKLKNFESSFNIDDFEQFRTEYTIDLSDFQNTERLKFLEEYYWKTLNFTTPMYGADTPGSIFPEGLNVWNVAKLPNILDHMETKVPGVNDSYLYAGLWKASFSWHLEDQDLYSINYIHFGAPKQWYSIPQEDRFKFYKFMQEQFPEEAKNCPEFLRHKMFLASPKLLQENGIRCNEIVHHEGEFMITYPYGYHAGFNYGYNLAESVNFALEEWLPIGKKAGKCHCISDSVEIDVKKLAKSWRDNNKESKGTPPLNQLPNPAMPLLHRPTLKEMESSSLRSTSPDVGHFSNFKSKSSGVSSPLLSRMKDYSNIVEPTLEDPTLKLKRISSFQEQPLNKLLKRETSQTAMLTDHEDNIVAMSLTSMANSAASSPRLPLSRLNSSNELSNAQPLLDMTNNTLAFPRPNGPSGLNPLLYISNKNISGISHSAPHSPVNPNISLIKRVKSPNIVTLNISRESSRSPIALNYEARQQHSQQHSFSTPSTVSNLSTSVLGPLSDTNDIKTPHPERPNHKTANRILKKESPVETSKSNLILSKVASTRQEDSFTSRNDDLDKEQGSSPLNSKFAPEEIVLSGKNKIYICKECQRKFSSGHHLTRHKKSVHSGEKPHSCPKCGKRFKRRDHVLQHLNKKIPCISNETTVDAPIMNPTVQPQDGKAAINQQSTPLN
modifications: GST-His6 tag
notes: as for B1
B3: VMA13: yeast GST-HisX6 fusion protein on proteome chip (protein, UniProt P41807 2-478, looked up)
V-type proton ATPase subunit H: GATKILMDSTHFNEIRSIIRSRSVAWDALARSEELSEIDASTAKALESILVKKNIGDGLSSSNNAHSGFKVNGKTLIPLIHLLSTSDNEDCKKSVQNLIAELLSSDKYGDDTVKFFQEDPKQLEQLFDVSLKGDFQTVLISGFNVVSLLVQNGLHNVKLVEKLLKNNNLINILQNIEQMDTCYVCIRLLQELAVIPEYRDVIWLHEKKFMPTLFKILQRATDSQLATRIVATNSNHLGIQLQYHSLLLIWLLTFNPVFANELVQKYLSDFLDLLKLVKITIKEKVSRLCISIILQCCSTRVKQHKKVIKQLLLLGNALPTVQSLSERKYSDEELRQDISNLKEILENEYQELTSFDEYVAELDSKLLCWSPPHVDNGFWSDNIDEFKKDNYKIFRQLIELLQAKVRNGDVNAKQEKIIIQVALNDITHVVELLPESIDVLDKTGGKADIMELLNHSDSRVKYEALKATQAIIGYTFK
modifications: GST-His6 tag
notes: as for B1
B4: SAS3: yeast GST-HisX6 fusion protein on proteome chip (protein, UniProt P34218 1-831, looked up)
Histone acetyltransferase SAS3: MSLTANDESPKPKKNALLKNLEIDDLIHSQFVRSDTNGHRTTRRLFNSDASISHRIRGSVRSDKGLNKIKKGLISQQSKLASENSSQNIVNRDNKMGAVSFPIIEPNIEVSEELKVRIKYDSIKFFNFERLISKSSVIAPLVNKNITSSGPLIGFQRRVNRLKQTWDLATENMEYPYSSDNTPFRDNDSWQWYVPYGGTIKKMKDFSTKRTLPTWEDKIKFLTFLENSKSATYINGNVSLCNHNETDQENEDRKKRKGKVPRIKNKVWFSQIEYIVLRNYEIKPWYTSPFPEHINQNKMVFICEFCLKYMTSRYTFYRHQLKCLTFKPPGNEIYRDGKLSVWEIDGRENVLYCQNLCLLAKCFINSKTLYYDVEPFIFYILTEREDTENHPYQNAAKFHFVGYFSKEKFNSNDYNLSCILTLPIYQRKGYGQFLMEFSYLLSRKESKFGTPEKPLSDLGLLTYRTFWKIKCAEVLLKLRDSARRRSNNKNEDTFQQVSLNDIAKLTGMIPTDVVFGLEQLQVLYRHKTRSLSSLDDFNYIIKIDSWNRIENIYKTWSSKNYPRVKYDKLLWEPIILGPSFGINGMMNLEPTALADEALTNETMAPVISNNTHIENYNNSRAHNKRRRRRRRSSEHKTSKLHVNNIIEPEVPATDFFEDTVSSLTEYMCDYKNTNNDRLIYQAEKRVLESIHDRKGIPRSKFSTETHWELCFTIKNSETPLGNHAARRNDTGISSLEQDEVENDVDTELYVGENAKEDEDEDEDFTLDDDIEDEQISEENDEEEDTYEEDSDDDEDGKRKGQEQDENDIESHIRKERVRKRRKITLIEDDEE
modifications: GST-His6 tag
notes: as for B1
B5: MUM2: yeast GST-HisX6 fusion protein on proteome chip (protein, UniProt P38236 1-366, looked up)
Protein MUM2: MNYMAYDYDPQHSLETSFNNLAFHPHQQSQQQALYESGERNDARPGLMNTLGQASKMNNSMLPQGSSASPLTGQHSLNSTTNFNMPPSMNTYNYQNVPQASMRNTLNHNNIMNGATANDYWLDPMNNMTNNKDTNGNPNDSMSSMSNMTAKTSINSTAFKNSFVPFNHVTALSMNNVNSNEMNSNKDDRMEALEVELQIKESQIESLENEIQRLKKIFNEGLNYKQNEHKYEKENCHIPQTFELPASLEVIFRKLSSSLHAKEKELAETKENLESILTALALNPTNSVTKYGRYDAESIAHKMVVRLENLTNENKEMAKMLAYGRSKETQIELQLAKKENLELREKIASLEAHLASKESSKEDVAN
modifications: GST-His6 fusion tag
notes: as for B1
B6: RGD1: yeast GST-HisX6 fusion protein on proteome chip (protein, UniProt P38339 1-666, looked up)
RHO GTPase-activating protein …: MEETAKKPASATVSAKSSHDGGTDDLAHLFSTPEIKKVLNSDVAINALLSRLKQSLLTCEEFMKFIRKKYAFEEEHVQELSKQYKHFFNIQGSTNSSLKKMIHEVLGFDGKMAQVKQSYITALQKMYSEISSLLLTMTKLRKSVKENSKRLEKDVSDAIHSAEKAQSRYNSLCQDWDKLRMTDPTKTKLTLRGSKTTKEQEEELLRKIDNADLEYKQKVDHSNSLRNTFITKERPRIVQELKDLILEIDTAMTIQLQKYTIWTENLVLNTGVTISPLDSTKSMKSFAGSVSNERDLYSFLNKYNQTGKHSLLINKNLIPVSYKKHPSMNHGQKNKSPPKFAVDPSRNSIPKRMISTHNESPFLSSSSNTAAVPNANLNSATPSLNTNKQLPPTMASSISSTSNAAGAMSPSSSIVTSDTTSSITKTLDPGNNSPQIPEELINSLDSDRPISHIQTNNNMPPGVQKNFKTFGVPLESLIEFEQDMVPAIVRQCIYVIDKFGLDQEGIYRKSANVLDVSKLKEEIDKDPANISMILPSKPHSDSDIYLVGSLLKTFFASLPDSVLPKALSSEIKVCLQIEDPTTRKNFMHGLIYNLPDAQYWTLRALVFHLKRVLAHEAQNRMNLRALCIIWGPTIAPANPDDANDVNFQIMAMEVLLEVSDQAFEPE
modifications: GST-His6 tag
notes: as for B1
B7: APA2: yeast GST-HisX6 fusion protein on proteome chip (protein, UniProt P22108 1-325, looked up)
Diadenosine …: MIEENLKQKIHDKFVAAKKNGHLKVTHAESKKLKDPQTTTQYWVTFAPSLALKPDANKNSDSKAEDPFANPDEELVVTEDLNGDGEYKLLLNKFPVVPEHSLLVTSEFKDQRSALTPSDLMTAYNVLCSLQGDKDDDVTCERYLVFYNCGPHSGSSQDHKHLQIMQMPEKFIPFQDVLCNGKDHFLPTFNAEPLQDDKVSFAHFVLPLPESSDQVDEDLLAMCYVSLMQRALTFFQDWTNESPELTKSYNVLLTKKWICVVPRSHAKSGPPLMLNINSTGYCGMILVKDREKLENLTEDPHLVDKSLLQCGFPNTAGQKPTEYHY
modifications: GST-His6 fusion tag
notes: as for B1
B8: SGA1: yeast GST-HisX6 fusion protein on proteome chip (protein, UniProt P08019 1-549, looked up)
Glucoamylase, intracellular …: MARQKMFYNKLLGMLSVGFGFAWALENITIYEFDFGKGILDQSYGGVFSNNGPSQVQLRDAVLMNGTVVYDSNGAWDSSALEEWLQGQKKVSIEKIFENIGPSAVYPSISPGVVIASPSQTHPDYFYQWIRDSALTINSIVSHSAGPAIETLLQYLNVSFHLQRSNNTLGAGIGYTNDTVALGDPKWNVDNTAFTEDWGRPQNDGPALRSIAILKIIDYIKQSGTDLGAKYPFQSTADIFDDIVRWDLRFIIDHWNSSGFDLWEEVNGMHFFTLLVQLSAVDKSLSYFNASERSSPFVEELRQTRRDISKFLVDPANGFINGKYNYIVGTPMIADTLRSGLDISTLLAANTVHDAPSASHLPFDINDPAVLNTLHHLMLHMRSIYPINDSSKNATGIALGRYPEDVYDGYGFGEGNPWVLATCTASTTLYQLIYRHISEQHDLVVPMNNDCSNAFWSELVFSNLTTLGNDEGYLILEFNTPAFNQTIQKIFQLADSFLVKLKAHVGTDGELSEQFNKYTGFMQGAQHLTWSYTSFWDAYQIRQEVLQSL
modifications: GST-HisX6 tag
notes: as for B1

Assays:
Conditions in all cases: liposome binding signal on yeast proteome chip, Cy3-streptavidin detection
PI(4,5)P2 liposomes = test: Yeast proteome chip probed with PI(4,5)P2 liposomes
PI(3,4)P2 liposomes = test: Yeast proteome chip probed with PI(3,4)P2 liposomes
[1] = test system: phosphatidylcholine (PC) liposomes; test: Yeast proteome chip probed with PC liposomes
How it was run: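 Binding detected by fluorescent streptavidin (Cy3 or Cy5, >30 min in the dark at RT) recognizing biotin-DHPE (1% w/w) in PC liposomes, which carried 5% (w/w) of the named phosphoinositide unless PC-only. Liposomes, made by sonication in TBS, were applied to blocked chips for 1 h at RT, then washed in PBS.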

PI(3,4,5)P3 liposomes = test: Yeast proteome chip probed with PI(3,4,5)P3 liposomes
PI(4)P liposomes = test: Yeast proteome chip probed with PI(4)P liposomes
PI(3)P liposomes = test: Yeast proteome chip probed with PI(3)P liposomes

Molecule	PI(4, 5)P2 (PI(4,5)P2 liposomes)	PI(3, 4)P2 (PI(3,4)P2 liposomes)	PC [1]	PI(3, 4, 5)P3 (PI(3,4,5)P3 liposomes)	PI(4)P (PI(4)P liposomes)	PI(3)P (PI(3)P liposomes)
B1	44.85	119.93	39.33	13.05	87.31	−50.50
B2	18.73	90.73	56.93	9.90	66.19	6.00
B3	34.40	44.27	45.78	28.12	16.55	11.50
B4	17.85	55.57	54.00	18.68	16.55	2.00
B5	38.76	49.29	46.66	63.34	90.15	81.50
B6	55.31	54.31	54.59	19.35	127.60	6.00
B7	34.84	31.40	42.26	40.05	43.98	22.50
B8	6.75	60.59	52.83	26.55	41.15	16.50
